Experiment [1] concerns the target T1, HLA-A2 molecule on T2 cells (human).
T1 construct: also called HLA-A2.1; HLA-A2 molecules
As to the kind of experiment: T2 binding assay (flow cytometry, BB7.2 anti-HLA-A2 stain of peptide-loaded T2 cells). As to the method:
Peptide binding capacity to the HLA-A2 molecule was measured by using the T2 cell line according to a protocol described previously (Peters et al., Bioinformatics 19(14):1765-1772, 2003). […] Cells were washed once with cold HBSS containing 0.1% BSA and incubated for 30 minutes at 4° C. with anti-HLA-A2.1 BB7.2 monoclonal antibody (1:40 dilution from hybridoma supernatant). After washing, cells were stained with FITC-labeled goat anti-mouse immunoglobulin (BD, San Jose, Calif.), and the level of HLA expression was measured by flow cytometry. HLA-A2 expression was quantified as fluorescence index (FI) according to the following formula: FI=[(geometric mean fluorescence intensity with peptide-geometric mean fluorescence intensity without peptide)/geometric mean fluorescence intensity without peptide]. Background fluorescence without BB7.2 was subtracted for each individual value. To compare the different peptides, FI_{0.5}, the peptide concentration that increases HLA-A2.1 expression by 50% over no peptide control background, was calculated from the titration curve for each peptide. […]
Background: Flow cytometry measures light scatter and fluorescence of single cells or particles in a stream.

For experiment [2], the target named is T1, HLA-A2 molecule on T2 cells. The experiment is described as above. The method, then:
Background fluorescence without BB7.2 was subtracted for each individual value. To compare the different peptides, FI_{0.5} (the peptide concentration that increases HLA-A2.1 expression by 50% over no peptide control background) was calculated from the titration curve for each peptide. […] Each assay was performed in triplicate, and data in this figure are representative of two experiments with similar results.
(§1) Peptide binding capacity to the HLA-A2 molecule was measured by using the T2 cell line according to a protocol described previously (Peters et al., Bioinformatics 19(14):1765-1772, 2003). […] Cells were washed once with cold HBSS containing 0.1% BSA and incubated for 30 minutes at 4° C. with anti-HLA-A2.1 BB7.2 monoclonal antibody (1:40 dilution from hybridoma supernatant). After washing, cells were stained with FITC-labeled goat anti-mouse immunoglobulin (BD, San Jose, Calif.), and the level of HLA expression was measured by flow cytometry. HLA-A2 expression was quantified as fluorescence index (FI) according to the following formula: FI=[(geometric mean fluorescence intensity with peptide-geometric mean fluorescence intensity without peptide)/geometric mean fluorescence intensity without peptide]. Background fluorescence without BB7.2 was subtracted for each individual value. To compare the different peptides, FI_{0.5}, the peptide concentration that increases HLA-A2.1 expression by 50% over no peptide control background, was calculated from the titration curve for each peptide.
The binding affinity of the predicted peptides with HLA-A2 molecules was measured by the T2 binding assay.
This is another data set of the same source.

Experiment [3] has the same target. As to the kind of experiment: T2 binding assay, FI0.5 against wild type POTE 252. The method, then:
as §1

For experiment [4] the target is unchanged. As to the kind of experiment: T2 binding assay, FI0.5 against wild type POTE 323. The method, then: as §1

Read-outs that look alike come from different tables or passages of the source.

Regarding KILEEIESV [POTE 553-561], the FI0.5 in experiment [1] was determined as 2.6 µM; in experiment [2], 5.6 µM.

YILEEIESV [POTE 553-1Y] showed an FI0.5 in experiment [1] of 0.024 µM.

With KLLEEIESV [POTE 553-2L], the FI0.5 in experiment [1] stood at 0.1 µM.

For the molecule KILEEIASV [POTE 553-7A], the FI0.5 in experiment [1] is 0.2 µM.

In the case of KIFEEIESV [POTE 553-3F], the FI0.5 in experiment [1] was found to be 0.3 µM.

On to KLMAKALLL [POTE 252-260], for which the FI0.5 in experiment [1] came to 1.5 µM; in experiment [2], 1.6 µM.

On to KLMAKAALL [POTE 252-7A], for which the FI0.5 in experiment [1] turned out to be 4 µM.

Molecule KLMAKALLV [POTE 252-9V] registered an FI0.5 in experiment [1] of 0.8 µM. Further, in experiment [3], the “fold lower FI0.5 than POTE 252” value was ~2 fold.

As for YLMAKALLL [POTE 252-1Y], the FI0.5 in experiment [1] turned out to be 0.9 µM. In addition, the “fold lower FI0.5 than POTE 252” value in experiment [3] is ~2 fold.

KLAAKALLL [POTE 252-3A]: the FI0.5 in experiment [1] is 16.9 µM.

In experiment [1], KLFAKALLL [POTE 252-3F] showed an FI0.5 of 1.5 µM.

For the molecule GLTPLLLGV [POTE 272-280], the FI0.5 in experiment [2] stood at 0.9 µM.

On to LLLEQNVDV [POTE 323-331], for which the FI0.5 in experiment [1] stood at 0.3 µM; in experiment [2], 0.8 µM.

As to LLLEQNADV [POTE 323-7A], the FI0.5 in experiment [1] amounted to 2.78 µM.

In experiment [1], LLFEQNVDV [POTE 323-3F] came in with an FI0.5 of 0.09 µM. In addition, in experiment [4], the “fold better FI0.5 than wild-type POTE 323” value is ~3 fold.

The molecule LLAEQNVDV [POTE 323-3A] came in with an FI0.5 in experiment [1] of 0.4 µM.

Molecule YLLEQNVDV [POTE 323-1Y] had an FI0.5 in experiment [1] of 0.25 µM.

The values above are taken from patent publication US20130039936A1 (published 2013).
